Results published in patent US20240343800A1 (Merck KGaA, published 2024).
Residue numbers refer to the chain shown, from its start.

B1: 82H02 TCE #1 (sequence optimized 82H02 bispecific TCE in Format 1A, high ROR1 / high CD3 affinity) (bispecific antibody)
heavy 1: EVQLVESGGGLVQPGGSLKLSCAASGFTFNTYAMNWVRQASGKGLEWVGRIRSKYNNYATYYADSVKGRFTISRDDSKNTLYLQMNSLKTEDTAVYYCVRHGNFGASYVSWFAYWGQGTMVTVSSASTKGPSVFPLAPSSKSTSGGTAALGCLVKDYFPEPVTVSWNSGALTSGVHTFPAVLQSSGLYSLSSVVTVPSSSLGTQTYICNVNHKPSNTKVDKKVEPKSCDKTHTCPPCPAPEAAGGPSVFLFPPKPKDTLMISRTPEVTCVVVDVSHEDPEVKFNWYVDGVEVHNAKTKPREEQYNSTYRVVSVLTVLHQDWLNGKEYKCKVSNKALGAPIEKTISKAKGQPFRPEVHLLPPSREEMTKNQVSLTCLARGFYPKDIAVEWESNGQPENNYKTTPSRQEPSQGTTTFAVTSKLTVDKSRWQQGNVFSCSVMHEALHNHYTQKTISLSPGK
heavy 2: EIVLTQSPATLSLSPGERATLSCRASQSVSSYLAWYQQKPGQAPRLLIYDASNRATGIPARFSGSGSGTDFTLTISSLEPEDFAVYYCQQRSNWPPSTFGQGTRLEIKGGGGSGGGGSGGGGSGGGGSEVQLLESGGGLVQPGGSLRLSCAASGFTFTSYAMSWVRQAPGKGLEWVSTISGSGGGTYYTDSVKGRFTISRDNSKNTLYLQMNSLRAEDTAVYYCAQGSSIFDYWGQGTLVTVSSEPKSSDKTHTCPPCPAPEAAGGPSVFLFPPKPKDTLMISRTPEVTCVVVDVSHEDPEVKFNWYVDGVEVHNAKTKPREEQYNSTYRVVSVLTVLHQDWLNGKEYKCKVSNKALGAPIEKTISKAKGQPREPQVYTLPPPSEELALNELVTLTCLVKGFYPSDIAVEWLQGSQELPREKYLTWAPVLDSDGSFFLYSILRVAAEDWKKGDTFSCSVMHEALHNHYTQKSLDRSPGKGGGGSGGGGSGGGGSGGGGSEIVLTQSPATLSLSPGERATLSCRASQSVSSYLAWYQQKPGQAPRLLIYDASNRATGIPARFSGSGSGTDFTLTISSLEPEDFAVYYCQQRSNWPPSTFGQGTRLEIKGGGGSGGGGSGGGGSGGGGSEVQLLESGGGLVQPGGSLRLSCAASGFTFTSYAMSWVRQAPGKGLEWVSTISGSGGGTYYTDSVKGRFTISRDNSKNTLYLQMNSLRAEDTAVYYCAQGSSIFDYWGQGTLVTVSS
light: QAVVTQEPSLTVSPGGTVTLTCRSSTGAVTTSNYANWVQQKPGQAPRGLIGGTNKRAPGTPARFSGSLLGGKAALTLSGVQPEDEAEYYCALWYSNLWVFGGGTKLTVLGQPKAAPSVTLFPPSSEELQANKATLVCLISDFYPGAVTVAWKADSSPVKAGVETTTPSKQSNNKYAASSYLSLTPEQWKSHRSYSCQVTHEGSTVEKTVAPTECS
notes: also called 82H02 #1; 82H02 VL1.07x1F3.5-VH1.03
B2: 82H02 TCE #4 (sequence optimized 82H02 bispecific TCE in Format 1A, low ROR1 / low CD3 affinity) (bispecific antibody)
heavy 1: B1 heavy 1 with A106N
heavy 2: B1 heavy 2 with S97F, S596F
light: B1 light with A2T, R23A, G48A
notes: also called 82H02 #4; 82H02 VL1.06x1F3.5-VH1.01-VL1.01
B3: 82H02 TCE #2 (sequence optimized 82H02 bispecific TCE in Format 1A, high ROR1 / low CD3 affinity) (bispecific antibody)
heavy 1: B1 heavy 1 with A106N
heavy 2: B1 heavy 2
light: B1 light with A2T, R23A, G48A
notes: also called 82H02 #2; 82H02 VL1.07x1F3.5-VH1.01-VL1.01

Each binder was assayed against T1, human ROR1 (on cells) (human, UniProt Q01973 30-937) (assay: flow cytometry, ROR1+ MDA-MB-231 cells).
T1 construct: Entry given with its signal peptide; also called hROR1; huROR1
Experimental: (§1) After 15-minutes of incubation at room temperature, the cells were washed twice with 200 μL of PBS by centrifugation at 500×g for 5 minutes at room temperature and resuspended in […] of 10% goat serum in BD staining buffer (BD Biosciences, Cat No: 554657). […] The plates were then covered with foil to avoid direct light and incubated for 60 minutes at 4° C. […] After incubating for 30 minutes at 4° C., the cells were washed twice with 200 μL of PBS by centrifugation at 500×g for 5 minutes at room temperature and resuspended into 100 μL of fixation buffer (BioLegend, Cat No: 420801). The samples were then analyzed on a flow cytometer for binding signal using FlowJo software. ROR and CD3 binding EC₅₀s (concentration vs mean fluorescence intensity (MFI)) for reference molecules and test bispecific TCEs were obtained using 4-parameter non-linear regression curve fitting in GraphPad Prism.

Row | Binder | EC50
1 | B1 | 0.81 nM
2 | B2 | 76.5 nM
3 | B3 | 0.72 nM

Each binder was assayed against T2, human CD3 (on Jurkat T cells or human CD8+ T cells) (human, UniProt P07766 23-207; P09693 23-182; P04234 22-171; P20963 22-164) (assay: flow cytometry, human CD8+ T cells).
T2 construct: Entries are printed with signal peptides; also called huCD3; CD3ε
Experimental: as §1

T2 sequence (P07766 23-207 limits assumed, chain 1 of 4): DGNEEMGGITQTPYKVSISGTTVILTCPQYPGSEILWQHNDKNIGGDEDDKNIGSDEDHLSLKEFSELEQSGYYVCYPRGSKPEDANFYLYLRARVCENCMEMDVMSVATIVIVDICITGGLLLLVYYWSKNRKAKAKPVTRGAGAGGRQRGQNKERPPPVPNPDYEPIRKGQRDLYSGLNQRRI
T2 sequence (P09693 23-182 limits assumed, chain 2 of 4): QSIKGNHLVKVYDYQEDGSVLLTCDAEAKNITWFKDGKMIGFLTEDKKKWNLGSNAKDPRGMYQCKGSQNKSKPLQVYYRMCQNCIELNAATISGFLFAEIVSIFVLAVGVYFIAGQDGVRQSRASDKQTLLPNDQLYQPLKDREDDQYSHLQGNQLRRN
T2 sequence (P04234 22-171 limits assumed, chain 3 of 4): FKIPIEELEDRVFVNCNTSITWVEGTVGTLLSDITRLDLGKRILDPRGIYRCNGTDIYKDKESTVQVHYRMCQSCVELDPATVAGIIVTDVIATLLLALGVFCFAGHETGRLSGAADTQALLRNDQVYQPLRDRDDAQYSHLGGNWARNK
T2 sequence (P20963 22-164 limits assumed, chain 4 of 4): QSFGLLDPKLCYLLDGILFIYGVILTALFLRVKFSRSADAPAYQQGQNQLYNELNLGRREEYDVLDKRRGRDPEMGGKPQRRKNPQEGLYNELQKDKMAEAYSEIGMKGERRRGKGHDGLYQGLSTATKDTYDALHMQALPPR

Row | Binder | EC50
4 | B1 | 2.8 nM
5 | B2 | 20.4 nM
6 | B3 | 19.8 nM

Each binder was assayed against T3, mouse ROR1 (on 4T1 cells engineered to overexpress it) (mouse, UniProt Q9Z139 30-937) (assay: flow cytometry; reference: human ROR1 on MDA-MB-231 cells).
T3 construct: whole, on cells; also called muROR1; mROR1

Row | Binder | fold difference in apparent ROR1 binding affinity between human and mouse ROR1
7 | B1 | ~3 fold
8 | B2 | ~6.5 fold
9 | B3 | ~3 fold

Each binder was assayed against T1, human ROR1 (on cells) (assay: cell-based or functional assay).

Row | Binder | TDCC EC50, PBMCs: MDA-MB-231
10 | B1 | 24.6 nM
11 | B2 | 168 nM
12 | B3 | 43.9 nM

Each binder was assayed against T3, mouse ROR1 (on 4T1 cells engineered to …) (assay: flow cytometry, 4T1 cells overexpressing mouse ROR1).
Experimental: as §1

Row | Binder | EC50
13 | B1 | 2.19 nM
14 | B2 | 496 nM
15 | B3 | 2.24 nM

Biological target: T1, human ROR1 (on cells)
Assay: cell-based or functional assay
Remark: another data set of the same source

Row | Binder | TDCC AUC, PBMCs: MDA-MB-231-0.2 | TDCC AUC, PBMCs: MDA-MB-231-0.4 | TDCC AUC, PBMCs: MDA-MB-231-0.6 | TDCC AUC, PBMCs: MDA-MB-231-1.3 | TDCC AUC, PBMCs: MDA-MB-231-7 | TDCC EC50, PBMCs: MDA-MB-231-0.2 | TDCC EC50, PBMCs: MDA-MB-231-0.4 | TDCC EC50, PBMCs: MDA-MB-231-0.6 | TDCC EC50, PBMCs: MDA-MB-231-1.3 | TDCC EC50, PBMCs: MDA-MB-231-7
16 | B1 | 39000 | 50200 | 57100 | 64800 | 74200 | 0.0119 nM | 0.0103 nM | 0.01 nM | 0.00703 nM | 0.00433 nM
17 | B2 | 25900 | 41900 | 46300 | 58900 | 68300 | 0.0223 nM | 0.0196 nM | 0.0152 nM | 0.0112 nM | 0.00653 nM
18 | B3 | 35700 | 47600 | 54100 | 63700 | 72000 | 0.0137 nM | 0.0125 nM | 0.0105 nM | 0.00896 nM | 0.0047 nM

Same assay, conditions: not given

Row | Binder | TDCC Emax, PBMCs: MDA-MB-231-0.2 | TDCC Emax, PBMCs: MDA-MB-231-0.4 | TDCC Emax, PBMCs: MDA-MB-231-0.6 | TDCC Emax, PBMCs: MDA-MB-231-1.3 | TDCC Emax, PBMCs: MDA-MB-231-7
19 | B1 | 40.7% | 52.2% | 60.2% | 66.5% | 75.8%
20 | B2 | 27.4% | 45% | 51.5% | 60.4% | 70.3%
21 | B3 | 37.5% | 50.2% | 56.8% | 65.4% | 74.1%

Biological target: T1, human ROR1 (on cells)
Assay: cell-based or functional assay
Remark: another data set of the same source

Row | Binder | IFNγ release AUC, PBMCs: MDA-MB-231-0.2 | IFNγ release AUC, PBMCs: MDA-MB-231-0.4 | IFNγ release AUC, PBMCs: MDA-MB-231-0.6 | IFNγ release AUC, PBMCs: MDA-MB-231-1.3 | IFNγ release AUC, PBMCs: MDA-MB-231-7 | IFNγ release EC50, PBMCs: MDA-MB-231-0.2 | IFNγ release EC50, PBMCs: MDA-MB-231-0.4 | IFNγ release EC50, PBMCs: MDA-MB-231-0.6 | IFNγ release EC50, PBMCs: MDA-MB-231-1.3 | IFNγ release EC50, PBMCs: MDA-MB-231-7
22 | B1 | 2.09e+06 | 2.43e+06 | 3.15e+06 | 4.93e+06 | 5.16e+06 | 0.143 nM | 0.123 nM | 0.0803 nM | 0.0243 nM | 0.0204 nM
23 | B2 | 1.09e+06 | 1.42e+06 | 8.23e+06 | 4.11e+06 | 4.14e+06 | 0.28 nM | 0.16 nM | 0.121 nM | 0.0351 nM | 0.0309 nM
24 | B3 | 1.55e+06 | 2.03e+06 | 9.77e+06 | 4.49e+06 | 4.68e+06 | 0.192 nM | 0.151 nM | 0.0977 nM | 0.0306 nM | 0.0265 nM

Same assay, conditions: not given

Row | Binder | IFNγ release Emax, PBMCs: MDA-MB-231-0.2 | IFNγ release Emax, PBMCs: MDA-MB-231-0.4 | IFNγ release Emax, PBMCs: MDA-MB-231-0.6 | IFNγ release Emax, PBMCs: MDA-MB-231-1.3 | IFNγ release Emax, PBMCs: MDA-MB-231-7
25 | B1 | 2860% | 3050% | 3980% | 5260% | 5420%
26 | B2 | 1730% | 1840% | 2780% | 4560% | 4480%
27 | B3 | 2270% | 2670% | 3670% | 4850% | 4970%

The binders below were run against T4, cynomolgus CD3 (on cynomolgus pan-T cells) (cynomolgus, UniProt Q95LI5 22-198) (assay: flow cytometry, cynomolgus pan-T cells).
T4 construct: whole, on cells
Experimental: as §1

T4 sequence (Q95LI5 22-198): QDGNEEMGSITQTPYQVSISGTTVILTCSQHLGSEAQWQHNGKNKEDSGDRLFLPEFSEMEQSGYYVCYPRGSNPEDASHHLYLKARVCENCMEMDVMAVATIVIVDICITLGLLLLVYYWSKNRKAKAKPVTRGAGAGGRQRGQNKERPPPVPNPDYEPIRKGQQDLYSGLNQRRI

Row | Binder | EC50
28 | B1 | 4.1 nM
29 | B2 | 27.7 nM
30 | B3 | 26.2 nM

Biological target: T1, human ROR1 (on cells)
Assay: cell-based or functional assay
Remark: another data set of the same source

Row | Binder | IFNγ release EC50, PBMCs: MDA-MB-231 | Max IFNγ, PBMCs: MDA-MB-231
31 | B1 | 205 nM | 1120 pg/mL
32 | B2 | 509 nM | 764 pg/mL
33 | B3 | 265 nM | 1000 pg/mL
